Test results: patent US20140249045
Residue numbers refer to the chain shown, from its start. Names and notes keep the numbering of the source.

T1: RagD GTPase as used in the in vitro GTPase assay, Q9NQL2
T1 chain: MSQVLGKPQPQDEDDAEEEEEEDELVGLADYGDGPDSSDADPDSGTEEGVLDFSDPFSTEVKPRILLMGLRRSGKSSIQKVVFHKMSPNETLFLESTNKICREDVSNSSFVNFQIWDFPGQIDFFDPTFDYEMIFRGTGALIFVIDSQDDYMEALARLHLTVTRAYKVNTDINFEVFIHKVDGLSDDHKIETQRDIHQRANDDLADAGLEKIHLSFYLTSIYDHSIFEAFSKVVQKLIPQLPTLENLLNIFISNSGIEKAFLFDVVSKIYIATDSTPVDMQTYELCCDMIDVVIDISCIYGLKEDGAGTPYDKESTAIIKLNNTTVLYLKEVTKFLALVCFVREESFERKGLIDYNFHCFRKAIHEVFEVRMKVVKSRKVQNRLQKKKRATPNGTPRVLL

B1: His-LRS-(759-1176) (protein)
chain: MADAGILRLYTWVEWVKEMVANWDSLRSGPASTFNDRVFASELNAGIIKTDQNYEKMMFKEALKTGFFEFQAAKDKYRELAVEGMHRELVFRFIEVQTLLLAPFCPHLCEHIWTLLGKPDSIMNASWPVAGPVNEVLIHSSQYLMEVTHDLRLRLKNYMMPAKGKKTDKQPLQKPSHCTIYVAKNYPPWQHTTLSVLRKHFEANNGKLPDNKVIASELGSMPELKKYMKKVMPFVAMIKENLEKMGPRILDLQLEFDEKAVLMENIVYLTNSLELEHIEVKFASEAEDKIREDCCPGKPLNVFRIEPGVSVSLVNPQPSNGHFSTKIEIRQGDNCDSIIRRLMKMNRGIKDLSKVKLMRFDDPLLGPRRVPVLGKEYTEKTPISEHAVFNVDLMSKKIHLTENGIRVDIGDTIIYLVH
B2: LRS (759-1176 a.a) fragment R845A (protein)
chain: B1 chain with R87A
B3: LRS (759-1176 a.a) fragment H844A (protein)
chain: B1 chain with H86A

Molecular target: T1, RagD GTPase as used in the in vitro …

| Protein | GTP hydrolysis by RagD GTPase (in vitro GTPase assay) | GAP activity on RagD (in vitro GTPase assay) |
| --- | --- | --- |
| B1 | addition of WT LRS fragment (759-1176 a.a) enhanced GTP hydrolysis by RagD GTPase in dose- and time-dependent manner | – |
| B2 | – | H844A and R845A mutants lost their GAP activity while WT LRS showed GAP activity |
| B3 | – | H844A and R845A mutants lost their GAP activity while WT LRS showed GAP activity |
